The record followed here is PMC4585211.

Assay [1] deals with LHCGR-Q303P/E305P (double proline mutant of the human lutropin/choriogonadotropin receptor), GFP fusion (human) (UniProt P22888).
Assay [2] addresses LHCGR-delExon10 (human lutropin/choriogonadotropin receptor lacking the exon10-encoded segment), GFP fusion (human) (UniProt P22888).

With “human lutropin (hLH) (from UniProt P01215 25-116; P01229 21-141) (ligand)”, the EC50 of cAMP accumulation (radioimmunoassay) in transiently transfected HEK 293 cells, stimulation with hLH for 1 h at 37°C; not significantly different from wild type (0.13 IU/ml) in assay [1] is 0.24 IU/ml. For the same substance, in assay [2], the EC50 of cAMP accumulation (radioimmunoassay) in transiently transfected HEK 293 cells, stimulation with hLH for 1 h at 37°C; significantly right-shifted against wild type (0.13 IU/ml) was 0.51 IU/ml.
As for “human choriogonadotropin (hCG) (from UniProt P01215 25-116; P0DN86 21-165) (ligand)”, the EC50 of cAMP accumulation (radioimmunoassay) in transiently transfected HEK 293 cells, stimulation with hCG for 1 h at 37°C; significantly right-shifted against wild type (0.15 IU/ml) in assay [1] was 0.85 IU/ml. The substance also showed an EC50 of cAMP accumulation (radioimmunoassay) in transiently transfected HEK 293 cells, stimulation with hCG for 1 h at 37°C; wild-type-like (wild type 0.15 IU/ml) in assay [2] of 0.18 IU/ml.
